Each block holds one binder with its values, some of them ahead of it.
Target: T1, SufB (subunit of the His6-SufBC2D complex, wild type) (Escherichia coli, UniProt P77522 1-495)
T1 sequence: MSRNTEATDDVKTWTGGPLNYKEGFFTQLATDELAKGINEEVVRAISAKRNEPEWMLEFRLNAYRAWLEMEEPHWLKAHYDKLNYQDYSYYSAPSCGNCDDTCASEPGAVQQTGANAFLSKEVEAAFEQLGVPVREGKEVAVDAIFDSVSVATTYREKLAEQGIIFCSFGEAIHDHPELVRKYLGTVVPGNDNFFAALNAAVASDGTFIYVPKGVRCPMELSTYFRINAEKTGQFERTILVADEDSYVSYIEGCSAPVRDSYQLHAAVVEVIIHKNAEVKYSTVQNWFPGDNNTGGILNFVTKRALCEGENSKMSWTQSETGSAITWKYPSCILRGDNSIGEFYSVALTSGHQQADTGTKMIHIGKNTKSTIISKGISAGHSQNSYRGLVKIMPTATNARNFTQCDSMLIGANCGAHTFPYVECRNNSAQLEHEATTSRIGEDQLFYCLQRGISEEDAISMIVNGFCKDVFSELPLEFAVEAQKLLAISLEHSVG
Assay: SEC-MALS

stoichiometry N: 1
B1: SufD (subunit of the SufBC2D complex, wild type) (natural protein, Escherichia coli)
chain: MAGLPNSSNALQQWHHLFEAEGTKRSPQAQQHLQQLLRTGLPTRKHENWKYTPLEGLINSQFVSIAGEISPQQRDALALTLDSVRLVFVDGRYVPALSDATEGSGYEVSINDDRQGLPDAIQAEVFLHLTESLAQSVTHIAVKRGQRPAKPLLLMHITQGVAGEEVNTAHYRHHLDLAEGAEATVIEHFVSLNDARHFTGARFTINVAANAHLQHIKLAFENPLSHHFAHNDLLLAEDATAFSHSFLLGGAVLRHNTSTQLNGENSTLRINSLAMPVKNEVCDTRTWLEHNKGFCNSRQLHKTIVSDKGRAVFNGLINVAQHAIKTDGQMTNNNLLMGKLAEVDTKPQLEIYADDVKCSHGATVGRIDDEQIFYLRSRGINQQDAQQMIIYAFAAELTEALRDEGLKQQVLARIGQRLPGGAR

stoichiometry N: 2
B2: SufC (subunit of the SufBC2D complex) (natural protein, Escherichia coli)
chain: MLSIKDLHVSVEDKAILRGLSLDVHPGEVHAIMGPNGSGKSTLSATLAGREDYEVTGGTVEFKGKDLLALSPEDRAGEGIFMAFQYPVEIPGVSNQFFLQTALNAVRSYRGQETLDRFDFQDLMEEKIALLKMPEDLLTRSVNVGFSGGEKKRNDILQMAVLEPELCILDESDSGLDIDALKVVADGVNSLRDGKRSFIIVTHYQRILDYIKPDYVHVLYQGRIVKSGDFTLVKQLEEQGYGWLTEQQ
